These results are taken from patent US20170369591.

The test system of this data set is topoisomerase I.
Sequence of topoisomerase I (chain, as listed by the source): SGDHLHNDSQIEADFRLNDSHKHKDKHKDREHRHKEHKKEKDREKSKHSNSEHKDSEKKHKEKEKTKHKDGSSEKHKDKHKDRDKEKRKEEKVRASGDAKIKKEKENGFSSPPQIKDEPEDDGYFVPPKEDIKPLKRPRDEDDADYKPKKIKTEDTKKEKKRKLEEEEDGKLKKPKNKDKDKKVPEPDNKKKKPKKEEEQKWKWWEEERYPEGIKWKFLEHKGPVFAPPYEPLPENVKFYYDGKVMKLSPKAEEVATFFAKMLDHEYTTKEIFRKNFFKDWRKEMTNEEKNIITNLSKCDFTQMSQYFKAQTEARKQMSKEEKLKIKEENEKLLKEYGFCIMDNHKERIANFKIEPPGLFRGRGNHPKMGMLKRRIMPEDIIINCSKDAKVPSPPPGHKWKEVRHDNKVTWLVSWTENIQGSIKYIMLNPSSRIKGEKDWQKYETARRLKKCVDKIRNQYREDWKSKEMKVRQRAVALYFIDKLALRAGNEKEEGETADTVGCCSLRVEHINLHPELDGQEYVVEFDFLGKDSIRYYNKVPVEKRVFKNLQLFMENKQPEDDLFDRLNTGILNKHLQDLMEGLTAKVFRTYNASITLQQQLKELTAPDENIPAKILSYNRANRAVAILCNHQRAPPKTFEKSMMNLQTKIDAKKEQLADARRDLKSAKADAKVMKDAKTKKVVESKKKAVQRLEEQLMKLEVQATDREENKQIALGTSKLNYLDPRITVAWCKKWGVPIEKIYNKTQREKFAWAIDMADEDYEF

With BRCA1-Flag/BARD1, the “in vitro ubiquitination, immunoblot with anti-ubiquitin” value is reported as “showed ubiquitination of topo I by BRCA 1”.
